Measurements as given in the supplement of paper PMC9112550, “Optimization of the antimicrobial peptide Bac7 by deep mutational scanning” (BMC Biology, 2022).

Tested on: Escherichia coli TOP10
Assay: shrunken log2 fold change of peptide-encoding DNA abundance (4.5 h post-induction vs induction); higher = less antimicrobial activity (less host growth inhibition)
Settings: time post-induction: 4.5 h; library: site-saturation at positions 5, 18, 19, 20
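Also: peptides expressed intracellularly from a pBAD plasmid library in pooled LB shake-flask culture, induced with 0.3% L-arabinose, DNA abundance read by NGS, three biological replicates, DESeq2 with apeglm shrinkage.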

Row | Sequence | shrunken log2 fold change
1 | RRIRARPPRLPRPRPRPPKNPRP | 0.562
2 | RRIRLRPPRLPRPRPRPEERPRP | 0.231
3 | RRIRVRPPRLPRPRPRPTWKPRP | -0.0442
4 | RRIRERPPRLPRPRPRPWDLPRP | -0.164
5 | RRIRHRPPRLPRPRPRPFNPPRP | -0.17
6 | RRIRLRPPRLPRPRPRPQACPRP | 0.00768
7 | RRIRFRPPRLPRPRPRPYWWPRP | -0.198
8 | RRIRFRPPRLPRPRPRPKTTPRP | 0.142
9 | RRIRDRPPRLPRPRPRPYAFPRP | -0.187
10 | RRIRCRPPRLPRPRPRPDDAPRP | -0.0228
11 | RRIRKRPPRLPRPRPRPAKAPRP | 0.106
12 | RRIRTRPPRLPRPRPRPNYKPRP | -0.823
13 | RRIRARPPRLPRPRPRPFYPPRP | -0.104
14 | RRIRCRPPRLPRPRPRPMDNPRP | -0.411
15 | RRIRDRPPRLPRPRPRPSTIPRP | -0.295
16 | RRIRTRPPRLPRPRPRPPNMPRP | -0.203
17 | RRIRSRPPRLPRPRPRPVHYPRP | -0.707
18 | RRIRVRPPRLPRPRPRPNYPPRP | -0.515
19 | RRIRDRPPRLPRPRPRPDGFPRP | 0.0291
20 | RRIRYRPPRLPRPRPRPFDIPRP | 0.0167
21 | RRIRTRPPRLPRPRPRPRETPRP | 0.511
22 | RRIRFRPPRLPRPRPRPRPPPRP | 1.36
23 | RRIRVRPPRLPRPRPRPMLFPRP | -0.329
24 | RRIRCRPPRLPRPRPRPTSNPRP | -0.1
25 | RRIRGRPPRLPRPRPRPWVKPRP | 0.0642

Row | Sequence | shrunken log2 fold change
26 | RRIRSRPPRLPRPRPRPDQMPRP | 0.049
27 | RRIRCRPPRLPRPRPRPCGTPRP | -0.306
28 | RRIRLRPPRLPRPRPRPQGMPRP | -0.0379
29 | RRIRFRPPRLPRPRPRPLSVPRP | -0.271
30 | RRIRPRPPRLPRPRPRPLQYPRP | -0.478
31 | RRIRQRPPRLPRPRPRPTEWPRP | 0.446
32 | RRIRKRPPRLPRPRPRPCPCPRP | 0.00911
33 | RRIRIRPPRLPRPRPRPKLMPRP | -0.171
34 | RRIRQRPPRLPRPRPRPQLNPRP | -0.367
35 | RRIRRRPPRLPRPRPRPKKCPRP | -0.325
36 | RRIRTRPPRLPRPRPRPTSHPRP | -0.478
37 | RRIRKRPPRLPRPRPRPMAIPRP | 0.116
38 | RRIRKRPPRLPRPRPRPKESPRP | -0.0162
39 | RRIRCRPPRLPRPRPRPYKDPRP | -0.492
40 | RRIRFRPPRLPRPRPRPSPVPRP | -0.00168
41 | RRIRARPPRLPRPRPRPIHGPRP | -0.208
42 | RRIRERPPRLPRPRPRPKEYPRP | -0.0204
43 | RRIRQRPPRLPRPRPRPNGIPRP | -0.0272
44 | RRIRFRPPRLPRPRPRPITLPRP | -0.274
45 | RRIRMRPPRLPRPRPRPPTKPRP | 0.508
46 | RRIRSRPPRLPRPRPRPLTIPRP | -0.201
47 | RRIRSRPPRLPRPRPRPHQKPRP | -0.189
48 | RRIRERPPRLPRPRPRPNPGPRP | -0.55
49 | RRIRLRPPRLPRPRPRPMHEPRP | -0.0688
50 | RRIRWRPPRLPRPRPRPLWPPRP | 0.275

Row | Sequence | shrunken log2 fold change
51 | RRIRWRPPRLPRPRPRPLTDPRP | -0.0316
52 | RRIRRRPPRLPRPRPRPRSLPRP | -0.0226
53 | RRIRHRPPRLPRPRPRPQPGPRP | -0.0184
54 | RRIRSRPPRLPRPRPRPYTFPRP | -1.01
55 | RRIRMRPPRLPRPRPRPMEYPRP | 0.0305
56 | RRIRQRPPRLPRPRPRPMQLPRP | -0.15
57 | RRIRCRPPRLPRPRPRPNYIPRP | -0.84
58 | RRIRDRPPRLPRPRPRPAPLPRP | 0.445
59 | RRIRHRPPRLPRPRPRPGTAPRP | -0.275
60 | RRIRRRPPRLPRPRPRPRAVPRP | 0.427
61 | RRIRCRPPRLPRPRPRPKKLPRP | 0.063
62 | RRIRGRPPRLPRPRPRPENAPRP | 1.03
63 | RRIRKRPPRLPRPRPRPTFSPRP | 0.148
64 | RRIRYRPPRLPRPRPRPIDEPRP | -0.438
65 | RRIRNRPPRLPRPRPRPDFFPRP | -0.138
66 | RRIRMRPPRLPRPRPRPNYRPRP | -0.133
67 | RRIRQRPPRLPRPRPRPCSRPRP | 0.0758
68 | RRIRRRPPRLPRPRPRPKTAPRP | 0.707
69 | RRIRRRPPRLPRPRPRPYWMPRP | -0.205
70 | RRIRKRPPRLPRPRPRPFLDPRP | 0.0893
71 | RRIRCRPPRLPRPRPRPTQTPRP | 0.286
72 | RRIRYRPPRLPRPRPRPHKCPRP | -0.259
73 | RRIRVRPPRLPRPRPRPFYVPRP | 1.07
74 | RRIRARPPRLPRPRPRPYYTPRP | -0.762
75 | RRIRARPPRLPRPRPRPCEGPRP | 0.0679

Row | Sequence | shrunken log2 fold change
76 | RRIRTRPPRLPRPRPRPCPGPRP | -0.232
77 | RRIRERPPRLPRPRPRPQGNPRP | -0.166
78 | RRIRSRPPRLPRPRPRPDWHPRP | -0.195
79 | RRIRSRPPRLPRPRPRPQWNPRP | -0.259
80 | RRIRPRPPRLPRPRPRPRSQPRP | 0.263
81 | RRIRGRPPRLPRPRPRPKVHPRP | 0.598
82 | RRIRIRPPRLPRPRPRPQNPPRP | -0.38
83 | RRIRTRPPRLPRPRPRPRIPPRP | 0.00212
84 | RRIRWRPPRLPRPRPRPWDEPRP | -0.106
85 | RRIRLRPPRLPRPRPRPIILPRP | -1.48
86 | RRIRVRPPRLPRPRPRPINHPRP | -0.464
87 | RRIRQRPPRLPRPRPRPDGLPRP | -0.0465
88 | RRIRPRPPRLPRPRPRPYEYPRP | -0.314
89 | RRIRPRPPRLPRPRPRPITMPRP | -0.238
90 | RRIRGRPPRLPRPRPRPRTWPRP | 0.317
91 | RRIRQRPPRLPRPRPRPCKGPRP | 0.00408
92 | RRIRGRPPRLPRPRPRPEQVPRP | 0.995
93 | RRIRSRPPRLPRPRPRPPCSPRP | 0.198
94 | RRIRFRPPRLPRPRPRPVICPRP | 0.0508
95 | RRIRMRPPRLPRPRPRPKEQPRP | 1.26
96 | RRIRPRPPRLPRPRPRPNENPRP | -0.348
97 | RRIRRRPPRLPRPRPRPRFKPRP | 0.0822
98 | RRIRYRPPRLPRPRPRPLQDPRP | 0.0382
99 | RRIRVRPPRLPRPRPRPYSWPRP | -0.163
100 | RRIRSRPPRLPRPRPRPYWEPRP | -0.0147

Row | Sequence | shrunken log2 fold change
101 | RRIRSRPPRLPRPRPRPMYWPRP | -0.134
102 | RRIRLRPPRLPRPRPRPIDLPRP | -0.0804
103 | RRIRIRPPRLPRPRPRPHSYPRP | -0.244
104 | RRIRRRPPRLPRPRPRPGLEPRP | 0.472
105 | RRIRNRPPRLPRPRPRPHRFPRP | 0.0175
106 | RRIRERPPRLPRPRPRPSSRPRP | -0.107
107 | RRIRMRPPRLPRPRPRPRSLPRP | 0.27
108 | RRIRIRPPRLPRPRPRPEGAPRP | 0.27
109 | RRIRDRPPRLPRPRPRPRPQPRP | 1.8
110 | RRIRARPPRLPRPRPRPGTSPRP | 0.24
111 | RRIRWRPPRLPRPRPRPWDHPRP | -0.0185
112 | RRIRERPPRLPRPRPRPQFFPRP | -0.0736
113 | RRIRVRPPRLPRPRPRPNWIPRP | -0.29
114 | RRIRSRPPRLPRPRPRPLWSPRP | -0.0384
115 | RRIRSRPPRLPRPRPRPKHQPRP | 0.155
116 | RRIRPRPPRLPRPRPRPCIDPRP | -0.742
117 | RRIRMRPPRLPRPRPRPHALPRP | -0.541
118 | RRIRERPPRLPRPRPRPSKCPRP | -0.488
119 | RRIRLRPPRLPRPRPRPMVRPRP | 0.0341
120 | RRIRMRPPRLPRPRPRPGRYPRP | 0.0164
121 | RRIRIRPPRLPRPRPRPDTIPRP | -0.0883
122 | RRIRGRPPRLPRPRPRPYTCPRP | -0.0226
123 | RRIRKRPPRLPRPRPRPDLSPRP | -0.0341
124 | RRIRHRPPRLPRPRPRPHIFPRP | -0.308
125 | RRIRNRPPRLPRPRPRPQPRPRP | 0.507
